Laboratory results from PMC6886524 (Journal of structural and functional genomics, 2015).

Target: Urease beta subunit (urea amidohydrolase) (UreB) of H. pylori (H. pylori, UniProt P69996 1-569)
Assay: crystal structure

Sequence of Urease beta subunit (urea amidohydrolase) (UreB) of H. pylori (P69996 whole entry): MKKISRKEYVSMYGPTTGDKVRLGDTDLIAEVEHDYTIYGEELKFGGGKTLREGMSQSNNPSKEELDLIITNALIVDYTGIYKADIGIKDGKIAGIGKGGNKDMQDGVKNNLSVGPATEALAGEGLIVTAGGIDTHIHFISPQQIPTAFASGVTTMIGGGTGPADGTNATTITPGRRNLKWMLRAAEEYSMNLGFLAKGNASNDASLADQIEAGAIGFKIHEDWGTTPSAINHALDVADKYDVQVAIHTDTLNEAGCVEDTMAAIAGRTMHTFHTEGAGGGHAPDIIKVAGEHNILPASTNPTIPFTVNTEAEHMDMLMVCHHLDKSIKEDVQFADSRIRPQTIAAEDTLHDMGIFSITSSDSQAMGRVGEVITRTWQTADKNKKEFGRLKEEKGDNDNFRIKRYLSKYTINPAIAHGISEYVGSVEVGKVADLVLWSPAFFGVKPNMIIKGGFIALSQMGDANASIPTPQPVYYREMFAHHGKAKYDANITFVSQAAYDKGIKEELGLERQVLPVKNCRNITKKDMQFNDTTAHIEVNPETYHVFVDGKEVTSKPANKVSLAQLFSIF

B1: Urease alpha subunit (UreA) (urea amidohydrolase) of H. pylori (natural protein)
chain: MKLTPKELDKLMLHYAGELAKKRKEKGIKLNYVEAVALISAHIMEEARAGKKTAAELMQEGRTLLKPDDVMDGVASMIHEVGIEAMFPDGTKLVTVHTPIEANGKLVPGELFLKNEDITINEGKKAVSVKVKNVGDRPVQIGSHFHFFEVNRCLDFDREKTFGKRLDIASGTAVRFEPGEEKSVELIDIGGNRRIFGFNALVDRQADNESKKIALHRAKERGFHGAKSDDNYVKTIKE
binding result: binds
